Biological target: KSR1 in KSR1+/+ mouse embryo fibroblasts (cells that overexpress KSR1) (UniProt Q61097)
Assay: proximity ligation; fixed serum-starved KSR1+/+ MEFs, anti-KSR1 with anti-pERK or anti-ERK antibodies, Duolink; vehicle or 40 μM CGS9343B for 16 h, then vehicle or 100 ng/ml EGF for 5 min; spots per cell, vehicle set to 1

KSR1 in KSR1+/+ mouse embryo fibroblasts (cells that overexpress KSR1), sequence (Q61097 whole entry): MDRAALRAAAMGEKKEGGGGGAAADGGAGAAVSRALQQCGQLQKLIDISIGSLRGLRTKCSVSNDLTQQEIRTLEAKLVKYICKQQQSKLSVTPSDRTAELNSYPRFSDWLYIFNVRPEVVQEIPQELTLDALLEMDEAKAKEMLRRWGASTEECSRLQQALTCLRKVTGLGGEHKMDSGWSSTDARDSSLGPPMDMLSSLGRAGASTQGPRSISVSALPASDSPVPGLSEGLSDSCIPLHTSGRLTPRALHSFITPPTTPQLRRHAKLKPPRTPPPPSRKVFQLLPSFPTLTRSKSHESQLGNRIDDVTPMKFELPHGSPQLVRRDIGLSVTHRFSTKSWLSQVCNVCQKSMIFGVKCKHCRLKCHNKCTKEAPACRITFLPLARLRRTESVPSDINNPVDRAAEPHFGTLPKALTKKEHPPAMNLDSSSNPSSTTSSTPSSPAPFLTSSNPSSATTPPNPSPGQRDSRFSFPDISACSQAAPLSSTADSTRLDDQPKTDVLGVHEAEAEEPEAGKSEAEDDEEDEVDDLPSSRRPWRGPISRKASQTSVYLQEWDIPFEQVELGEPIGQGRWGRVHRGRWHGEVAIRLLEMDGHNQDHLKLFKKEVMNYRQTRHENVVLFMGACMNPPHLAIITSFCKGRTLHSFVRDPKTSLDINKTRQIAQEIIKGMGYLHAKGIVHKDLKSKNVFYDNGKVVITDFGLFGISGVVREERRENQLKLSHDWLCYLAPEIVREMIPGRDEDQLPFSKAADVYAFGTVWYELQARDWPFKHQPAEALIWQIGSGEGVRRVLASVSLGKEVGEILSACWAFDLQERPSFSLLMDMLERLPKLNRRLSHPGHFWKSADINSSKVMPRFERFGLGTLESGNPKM

fold change of PLA spots per cell, EGF against vehicle [fold]	Substance
4.36	ERK (extracellular signal-regulated kinase), total ERK (from UniProt P63085 1-358) (natural protein)
6.2	pERK (phosphorylated ERK) (from UniProt P63085 1-358) (natural protein)
